Experimental data taken from paper PMC2909587.

Biological target: taxol-stabilised pig-brain MTs (pig) (UniProt P02550)
Assay: co-sedimentation

- Kd: 700 nM
- stoichiometry N: 6 CENP-Q:MT
Substance: CENP-Q (from UniProt Q7L2Z9 1-268) (natural protein)
